Molecular target: streptavidin AF488 (Streptomyces avidinii, UniProt P22629)
Assay: Degradation of a target protein using an LRP1 binding motif
Format: cell-based
Details: FIG. 12
From the text: Some studies have been done on other bifunctional molecules comprising an LRP1 binding motif depicted in FIG. 2 and a biotin Target binding motif, wherein these bifunctional molecules also noncovalently bind streptavidin (FIG. 11).

streptavidin AF488, sequence (P22629 25-183): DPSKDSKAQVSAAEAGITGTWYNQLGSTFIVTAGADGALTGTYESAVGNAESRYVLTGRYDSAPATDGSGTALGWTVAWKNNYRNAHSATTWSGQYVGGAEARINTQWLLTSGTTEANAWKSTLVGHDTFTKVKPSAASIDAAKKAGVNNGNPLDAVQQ

## Ac.Ac.Biotin Angiopep-2: "the Ac.Ac.Biotin Angiopep-2 mediated degradation of streptavidin AF488"
  degradation of streptavidin AF488: mediated degradation of streptavidin AF488
